Measurements reported in US20150344570A1 (published 2015).

T1: FcγRIIa H (human, UniProt P12318 34-217)
T1 construct: extracellular domain; also called FcgRIIa H; 2aH; not shown: His tag attached to the C terminus
T1 sequence (looked up): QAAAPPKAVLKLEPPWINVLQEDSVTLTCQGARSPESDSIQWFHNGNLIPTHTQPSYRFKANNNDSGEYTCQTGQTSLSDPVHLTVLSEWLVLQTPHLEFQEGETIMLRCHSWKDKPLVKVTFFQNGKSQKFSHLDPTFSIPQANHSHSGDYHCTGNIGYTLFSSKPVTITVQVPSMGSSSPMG

T2: FcγRIIb (human, UniProt P31994 43-217)
T2 construct: extracellular domain; also called FcgRIIb; 2b; not shown: His tag attached to the C terminus
T2 sequence (looked up): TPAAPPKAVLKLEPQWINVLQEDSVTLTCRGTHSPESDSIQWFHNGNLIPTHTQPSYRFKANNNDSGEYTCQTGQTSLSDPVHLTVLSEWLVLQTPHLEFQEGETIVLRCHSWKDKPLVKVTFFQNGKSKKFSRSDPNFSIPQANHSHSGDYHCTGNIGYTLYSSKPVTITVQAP


Key:
FcγRIIa H [1] = target: T1, FcγRIIa H; assay: SPR; He/Con for FcγRIIa H divided by He/Con for FcγRIIb
FcγRIIa H [2] = target: T1, FcγRIIa H; assay: SPR (Biacore), antibody captured on antigen peptide chip, FcγR as analyte; relative binding activity
Experimental: (§1) The heterodimerized antibodies He Abs in which one of the H chains was introduced with an alteration were assayed for their binding activities to each activating FcγR and inhibitory FcγR according to the method described in Example 4. […] The activating FcγRs in FIGS. 26, 27, 28, and 29 are FcγRIa, FcγRIIa (R), FcγRIIa (H), and FcγRIIIa, respectively.
(§2) Analysis of interaction between objective antibody and the FcγR was carried out using Biacore T100 (GE Healthcare). HBS-EP+ (GE Healthcare) was used as the running buffer, and the measurement temperature was set to 25° C. Chips produced by immobilizing the antigen peptide by the amine coupling method to a Series S Sencor Chip CM5 (GE Healthcare), or alternatively, chips produced by allowing preliminarily biotinylated antigen peptides to interact with and immobilize onto a Series S Sensor Chip SA (certified) (GE Healthcare) were used. Antibodies of interest were captured onto an antigen peptide-immobilized chip, and allowed to interact to each FcγR diluted with running buffer. To regenerate and repeatedly use the chip, the antibodies captured on the chip were washed off by reacting 10 mM glycine-HCl, pH 1.5.

FcγRIIb = target: T2, FcγRIIb; assay: as above
Experimental: as §1, §2

| Binder | He_2aH/2b (IIaH/IIb) (FcγRIIa H [1]) [ratio] | He/Con_2aH (FcγRIIa H [2]) | He/Con_2b (FcγRIIb) |
| --- | --- | --- | --- |
| GpH7-A5/GpH7-B3 variant D265_16H/GpL16-k0 (antibody, human IgG1, kappa, Heterodimerized anti-glypican-3 IgG1; mutation in one H chain only; also called He Ab) heavy 1: not shown heavy 2: not shown light: DIVMTQSPLSLPVTPGEPASISCQASESLVHSNRNTYLHWYLQKPGQSPQLLIYKVSNRFSGVPDRFSGSGSGTDFTLKISRVEAEDVGVYYCSQNTHVPPTFGQGTKVEIERTVAAPSVFIFPPSDEQLKSGTASVVCLLNNFYPREAKVQWKVDNALQSGNSQESVTEQDSKDSTYSLSSTLTLSKADYEKHKVYACEVTHQGLSSPVTKSFNRGEC | 1.27 | 48.6 % of GpH7-A5/GpH7-B3/GpL16-k0 (=100) | 38.3 % of GpH7-A5/GpH7-B3/GpL16-k0 (=100) |
| GpH7-A5/GpH7-B3 variant D265_14T/GpL16-k0 (antibody, human IgG1, kappa, Heterodimerized anti-glypican-3 IgG1; mutation in one H chain only; also called He Ab) heavy 1: not shown heavy 2: not shown light: DIVMTQSPLSLPVTPGEPASISCQASESLVHSNRNTYLHWYLQKPGQSPQLLIYKVSNRFSGVPDRFSGSGSGTDFTLKISRVEAEDVGVYYCSQNTHVPPTFGQGTKVEIERTVAAPSVFIFPPSDEQLKSGTASVVCLLNNFYPREAKVQWKVDNALQSGNSQESVTEQDSKDSTYSLSSTLTLSKADYEKHKVYACEVTHQGLSSPVTKSFNRGEC | 1.5 | 24.1 % of GpH7-A5/GpH7-B3/GpL16-k0 (=100) | 16 % of GpH7-A5/GpH7-B3/GpL16-k0 (=100) |
| GpH7-A5/GpH7-B3 variant E269_01G/GpL16-k0 (antibody, human IgG1, kappa, Heterodimerized anti-glypican-3 IgG1; mutation in one H chain only; also called He Ab) heavy 1: not shown heavy 2: not shown light: DIVMTQSPLSLPVTPGEPASISCQASESLVHSNRNTYLHWYLQKPGQSPQLLIYKVSNRFSGVPDRFSGSGSGTDFTLKISRVEAEDVGVYYCSQNTHVPPTFGQGTKVEIERTVAAPSVFIFPPSDEQLKSGTASVVCLLNNFYPREAKVQWKVDNALQSGNSQESVTEQDSKDSTYSLSSTLTLSKADYEKHKVYACEVTHQGLSSPVTKSFNRGEC | 1.39 | 71.5 % of GpH7-A5/GpH7-B3/GpL16-k0 (=100) | 51.5 % of GpH7-A5/GpH7-B3/GpL16-k0 (=100) |
| GpH7-A5/GpH7-B3 variant D265_15Y/GpL16-k0 (antibody, human IgG1, kappa, Heterodimerized anti-glypican-3 IgG1; mutation in one H chain only; also called He Ab) heavy 1: not shown heavy 2: not shown light: DIVMTQSPLSLPVTPGEPASISCQASESLVHSNRNTYLHWYLQKPGQSPQLLIYKVSNRFSGVPDRFSGSGSGTDFTLKISRVEAEDVGVYYCSQNTHVPPTFGQGTKVEIERTVAAPSVFIFPPSDEQLKSGTASVVCLLNNFYPREAKVQWKVDNALQSGNSQESVTEQDSKDSTYSLSSTLTLSKADYEKHKVYACEVTHQGLSSPVTKSFNRGEC | 6.07 | 3.7 % of GpH7-A5/GpH7-B3/GpL16-k0 (=100) | 0.6 % of GpH7-A5/GpH7-B3/GpL16-k0 (=100) |
| GpH7-A5/GpH7-B3 variant G236_16H/GpL16-k0 (antibody, human IgG1, kappa, Heterodimerized anti-glypican-3 IgG1; mutation in one H chain only; also called He Ab) heavy 1: not shown heavy 2: not shown light: DIVMTQSPLSLPVTPGEPASISCQASESLVHSNRNTYLHWYLQKPGQSPQLLIYKVSNRFSGVPDRFSGSGSGTDFTLKISRVEAEDVGVYYCSQNTHVPPTFGQGTKVEIERTVAAPSVFIFPPSDEQLKSGTASVVCLLNNFYPREAKVQWKVDNALQSGNSQESVTEQDSKDSTYSLSSTLTLSKADYEKHKVYACEVTHQGLSSPVTKSFNRGEC | 3.51 | 98.2 % of GpH7-A5/GpH7-B3/GpL16-k0 (=100) | 27.9 % of GpH7-A5/GpH7-B3/GpL16-k0 (=100) |
| GpH7-A5/GpH7-B3 variant D265_13S/GpL16-k0 (antibody, human IgG1, kappa, Heterodimerized anti-glypican-3 IgG1; mutation in one H chain only; also called He Ab) heavy 1: not shown heavy 2: not shown light: DIVMTQSPLSLPVTPGEPASISCQASESLVHSNRNTYLHWYLQKPGQSPQLLIYKVSNRFSGVPDRFSGSGSGTDFTLKISRVEAEDVGVYYCSQNTHVPPTFGQGTKVEIERTVAAPSVFIFPPSDEQLKSGTASVVCLLNNFYPREAKVQWKVDNALQSGNSQESVTEQDSKDSTYSLSSTLTLSKADYEKHKVYACEVTHQGLSSPVTKSFNRGEC | 1.75 | 19.8 % of GpH7-A5/GpH7-B3/GpL16-k0 (=100) | 11.3 % of GpH7-A5/GpH7-B3/GpL16-k0 (=100) |
| GpH7-A5/GpH7-B3 variant D265_03V/GpL16-k0 (antibody, human IgG1, kappa, Heterodimerized anti-glypican-3 IgG1; mutation in one H chain only; also called He Ab) heavy 1: not shown heavy 2: not shown light: DIVMTQSPLSLPVTPGEPASISCQASESLVHSNRNTYLHWYLQKPGQSPQLLIYKVSNRFSGVPDRFSGSGSGTDFTLKISRVEAEDVGVYYCSQNTHVPPTFGQGTKVEIERTVAAPSVFIFPPSDEQLKSGTASVVCLLNNFYPREAKVQWKVDNALQSGNSQESVTEQDSKDSTYSLSSTLTLSKADYEKHKVYACEVTHQGLSSPVTKSFNRGEC | 1.42 | 4.6 % of GpH7-A5/GpH7-B3/GpL16-k0 (=100) | 3.2 % of GpH7-A5/GpH7-B3/GpL16-k0 (=100) |
| GpH7-A5/GpH7-B3 variant D265_11K/GpL16-k0 (antibody, human IgG1, kappa, Heterodimerized anti-glypican-3 IgG1; mutation in one H chain only; also called He Ab) heavy 1: not shown heavy 2: not shown light: DIVMTQSPLSLPVTPGEPASISCQASESLVHSNRNTYLHWYLQKPGQSPQLLIYKVSNRFSGVPDRFSGSGSGTDFTLKISRVEAEDVGVYYCSQNTHVPPTFGQGTKVEIERTVAAPSVFIFPPSDEQLKSGTASVVCLLNNFYPREAKVQWKVDNALQSGNSQESVTEQDSKDSTYSLSSTLTLSKADYEKHKVYACEVTHQGLSSPVTKSFNRGEC | 1.87 | 27.8 % of GpH7-A5/GpH7-B3/GpL16-k0 (=100) | 14.9 % of GpH7-A5/GpH7-B3/GpL16-k0 (=100) |
